In ChEMBL document CHEMBL1136204, “Thymidine and thymidine-5'-O-monophosphate analogues as inhibitors of Mycobacterium tuberculosis thymidylate kinase” (Bioorg Med Chem Lett, 2003):

What was measured:
[1] = substrate: Cc1cn([C@H]2C=C[C@@H](COP(=O)(O)O)O2)c(=O)[nH]c1=O; assay: Affinity towards thymidine monophosphate kinase (TMPKmt) in Mycobacterium tuberculosis
[2] = substrate: Cc1cn([C@H]2C[C@H](O)[C@@H](COP(=O)(O)O)O2)c(=O)[nH]c1=O; assay: Affinity towards thymidine monophosphate kinase (TMPKmt) in Mycobacterium tuberculosis using HPLC chromatography test

B1: Thymidylate kinase (Mycobacterium tuberculosis), P9WKE1 (protein)
chain: MLIAIEGVDGAGKRTLVEKLSGAFRAAGRSVATLAFPRYGQSVAADIAAEALHGEHGDLASSVYAMATLFALDRAGAVHTIQGLCRGYDVVILDRYVASNAAYSAARLHENAAGKAAAWVQRIEFARLGLPKPDWQVLLAVSAELAGERSRGRAQRDPGRARDNYERDAELQQRTGAVYAELAAQGWGGRWLVVGADVDPGRLAATLAPPDVPS
- Km [1]: 140 µM
- Km [2]: 40 µM
